Laboratory results as given in the DeepSol protein solubility set.

Assay: soluble on expression in E. coli; label from the status in PepcDB or PDB records
In the case of “EDMKGKIRVYCRLRPLCEKEIIAKERNAIRSVDEFTVEHLWKDDKAKQHMYDRVFDGNATQDDVFEDTKYLVQSAVDGYNVCIFAYGQTGSGKTFTIYGADSNPGLTPRAMSELFRIMKKDSNKFSFSLKAYMVELYQDTLVDLLLPKQAKRLKLDIKKDSKGMVSVENVTVVSISTYEELKTIIQRGSEQRHTTGTLMNEQSSRSHLIVSVIIESTNLQTQAIARGKLSFVDLAGSERVKKSGSAGNQLKEAQSINKSLSALGDVISALSSGNQHIPYRNHKLTMLMSDSLGGNAKTLMFVNISPAESNLDETHNSLTYASRVRSIVNDPSKNVSSKEVARLKKLVSYWKEQAGRKGDDEELEEIQDE”, the “soluble on expression in E. coli” value is reported as “soluble”. With “MSDDALSRIAAALERMSPPPMPAPDFSAVDAFAWHTSPDRLEPVPRVARVDLSLLVGVNRARDILLDNTEHFARGLPANNALLWGSRGMGKSSLVKAIHAAVVAKGLPLKIVELSREDLPSVQRLLKHLRGAPFRFILFCDDLSFSHDDQHYKSLKAVLDGGIEGRPENVILYATSNRRHLMPRDMIENERSTAISPSEAVEEKVSLSDRFGLWLGFHPCSQDEYLEMIRGYCAAHGLSVAEEELRAEAIEWQATRGARSGRVAWQFFTDLAARHGVALLEHHHHHH” the “soluble on expression in E. coli” value was “not soluble”. With “MSYYHHHHHHDYDIPTTGNLYFQGAMVAISFRPTADLVDDIGPDVRSCDLQFRQFGGRSQFAGPISTVRCFQDNALLKSVLSQPSAGGVLVIDGAGSLHTALVGDVIAELARSTGWTGLIVHGAVRDAAALRGIDIGIKALGTNPRKSTKTGAGERDVEITLGGVTFVPGDIAYSDDDGIIVV” the “soluble on expression in E. coli” value was “soluble”. With “MIRLPLLPTVIKNLFKKPATNPFPKTEPVPVPEDFRGKLVYNVDKCVGCRMCVTVCPAGVFVYLPEIRKVTLWIGRCVMCKQCVDVCPTAALQMSDEFLLASYDKYDAKLIYLTPEEAEDIKKKLEEANKAKAEKQASK” the “soluble on expression in E. coli” value was “not soluble”. With “MSSHHHHHHSSGLVPRGSHMASMSDSEVNQEAKPEVKPEVKPETHINLKVSDGSSEIFFKIKKTTPLRRLMEAFAKRQGKEMDSLRFLYDGIRIQADQTPEDLDMEDNDIIEAHREQIGGSLMIIENSHVKKDDIWPSGGQMTVKDLTAKYTEGGNAILENISFSISPGQRVGLLGRTGSGKSTLLSAFLRLLNTEGEIQIDGVSWDSITLQQWRKAFGVIPQKVFIFSGTFRKNLDPYEQWSDQEIWKVADEVGLRSVIEQFPGKLDFVLVDGGCVLSHGHKQLMCLARSVLSKAKILLLDQPSAHLDPVTYQIIRRTLKQAFADCTVILCEHRIEAMLECQQFLVIEENKVRQYDSIQKLLNERSLFRQAISPSDRVKLFPHRNSSK” the “soluble on expression in E. coli” value was “soluble”. For “VTVHSTPVRRSSGPAPQSLLSARRVSALPTPASRRCSGLPPMTPKTMPRAVGSPLCVPARRRSSEPRKNSAMRTEPTRESNRKTDSRLVDVSPDRGSPPSRVPQALNFSPEESDSTFSKSTATEVAREEAKPGGDAAPSEALLVDIKLEPLAVTPDAASQPLIDLPLIDFCDTPEAHVAVGSESRPLIDLMTNTPDMNKNVAKPSPVVGQLIDLSSPLIQLSPEADKENVDSPLLKF”, the “soluble on expression in E. coli” value was “not soluble”. In the case of “MSLGSVNRVYLARLSRMSVLGPLGESFGRVRDVVISISIVRQQPRVLGLVVDLATRRKIFIPILRVAAIEPHAVTLSTGNVSLHRFEQRPGEALALGQVLDTLVKVNDPALPELAGVDVVVTDLGVEQTRSRDWMVTRVAVRTQRRLRRRCPVHVVDWHNVAGLTPSALAMPGQDVAQLLDQFEGWKAVDVADAIRGLPPKRRHEVFKALHDKRLADVLQELPELDQAEVLSQLGTERAADVLEEMDPDDAADLLAVLNPTEAELLLTRMDPGDSGQVRRLLTHSPDTAGGLMTSDPVVLTPDTSIAEALARVRDPDLTPALASMVFVARPPTATPTGHYLGCVHLQRLLRDPPAELVGGVVDTDLLTLTPETPLAAVTRYFAAYNLVCGPVVDDENHLLGAVTVDDLLDHLLPHDWRVDMPELDPSGAPDRPGGPREGHHHHHH”, the “soluble on expression in E. coli” value is reported as “soluble”. With “MEPSSLELPADTVQRIAAELKCHPTDERVALHLDEEDKLRHFRECFYIPKIQDLPPVDLSLVNKDENAIYFLGNSLGLQPKMVKTYLEEELDKWAKIAAYGHEVGKRPWITGDESIVGLMKDIVGANEKEIALMNALTVNLHLLMLSFFKPTPKRYKILLEAKAFPSDHYAIESQLQLHGLNIEESMRMIKPREGEETLRIEDILEVIEKEGDSIAVILFSGVHFYTGQHFNIPAITKAGQAKGCYVGFDLAHAVGNVELYLHDWGVDFACWCSYKYLNAGAGGIAGAFIHEKHAHTIKPALVGWFGHELSTRFKMDNKLQLIPGVCGFRISNPPILLVCSLHASLEIFKQATMKALRKKSVLLTGYLEYLIKHNYGKDKAATKKPVVNIITPSHVEERGCQLTITFSVPNKDVFQELEKRGVVCDKRNPNGIRVAPVPLYNSFHDVYKFTNLLTSILDSAETKN” the “soluble on expression in E. coli” value was “soluble”. With “SRRLGKSLGINSIPCKFCSYDCVYCQVGRTINKTIERREFYSPEDIFKSVEERIGKLNNEKIDYLTFVADGEPTLDINLSKEVEMLRDFDIPIAIITNSSLIWREDVRNDILNFDLVSFKVDSVDEKIWREINRPHKDLVLDKILEGMIAFRDNYKGELITETMILGSIKYTEESIIKTAEFLKELNPNKCYLNTPIRPPSEKYIKPPKIEVITKILAIFNEIIGKNKIKLLGKFE” the “soluble on expression in E. coli” value was “not soluble”. With “RENFPGVSWDSLPDELLLGIFSCLCLPELLKVSGVCKRWYRLASDESLWQTLDLTGKNLHPDVTGRLLSQGVIAFRCPRSFMDQPLAEHFSPFRVQHMDLSNSVIEVSTLHGILSQCSKLQNLSLEGLRLSDPIVNTLAKNSNLVRLNLSGCSGFSEFALQTLLSSCSRLDELNLSWCFDFTEKHVQVAVAHVSETITQLNLSGYRKNLQKSDLSTLVRRCPNLVHLDLSDSVMLKNDCFQEFFQLNYLQHLSLSRCYDIIPETLLELGEIPTLKTLQVFGIVPDGTLQLLKEALPHLQINCSHFTTIARPTIGNKKNQEIWGIKCRLTLQKPSCL” the “soluble on expression in E. coli” value was “soluble”. With “MASMTGGQQMGRDLQVTLYGTIKAGVEVSRVKDAGTYKAQGGKSKTATQIADFGSKIGFKGQEDLGNGMKAIWQLEQKASIAGTNSGWGNRQSFIGLKGGFGTVRAGNLNTVLKDSGDNVNAWESGSNTEDVLGLGTIGRVESREISVRYDSPVFAGFSGSVQYVPRDNANDVDKYKHTKSSRESYHAGLKYENAGFFGQYAGSFAKYADLNTDAERVAVNTANAHPVKDYQVHRVVAGYDANDLYVSVAGQYEAAKNNEVGSIKGKKHEQTQVAATAAYRFGNVTPRVSYAHGFKAKVNGVKDANYQYDQVIVGADYDFSKRTSALVSAGWLKQGKGAGKVEQTASMVGLRHKF” the “soluble on expression in E. coli” value was “soluble”. In the case of “MDLPQKKKFTESERAALAKKLDDDLDQFMEEMAARKSDKKEERKPFDFDDWCKEIDQHPAFMTEMPTDGKYQDTIEALQSMKYDKEDDEDKQMNAEHHKEEGNKHFKFKKYRWATDCYSNGIKENSPDRKLNAVLYFNRAAAQKHLGNLRSAIKDCSMGRKFDPTHLKGVIRGAECLLELEYAKDALNWIESSKKIFAFTKETSDTPDLTDDEKKFIDQLETLRVKSVELSLKEERDKRKSRAEERKETESKKQLLDALKERNLNLCPRVPFDRPELMDMARLTVSLPLMHSHECVKFDDDLNLVWPILLQYPEAGQTDVLTETNELTTVGELLKEVLNSPAQWDPEHKFNFENVRFFVSDEYDEYLMEVYEWNDFKSVLSMPGYQIKQGLPVIMIMTKEKAASSLEALAEDENRYVAK”, the “soluble on expression in E. coli” value is reported as “soluble”. For “MGHHHHHHSHMAGAGVPGEATGRGAGGRRRKRPLQRGKPPYSYIALIAMAIAHAPERRLTLGGIYKFITERFPFYRDNPKKWQNSIRHNLTLNDCFLKIPREAGRPGKGNYWALDPNAEDMFESGSFLRRRKRFKRSDLST”, the “soluble on expression in E. coli” value was “soluble”. For “MGCGLRKLEDPDESSPGKIFSTLKRPQVETKTEFAYEYALLDFTLQASTNPDVIKINSVLDIVAKVEDYYLKGYVVGAIHPVIQPVGQRKHLPASHLYRAVLSRLKLSPKHSAAGGQRRARLVMEECPLTCEAQANDAAKELMDKINAAAKRGMKFVGLVSQCYLPSMHCNGASHDGVAESGLHVRQDSQDNCKGWNEGALGGHLSESGVEEEPQHESGQHQTERNSSPSYANPKRGEAPDGKLYMVFNAFEEDAASWAYQEGVLSMKVTRKGAVISALDANWLELTTFYYKQGFSLIDSFVCWETPKVAKLEAFQLSVSDKLPKGKQKYSFQSLSGIPASGLA”, the “soluble on expression in E. coli” value was “soluble”.
